Experimental data reported in PMC9242859.

Biological target: C-terminally TAMRA-conjugated and N-terminally myristoylated preS1 peptide, amino acids 2-48 of the preS1 region (preS1 probe)
Assay: preS1 binding assay (fluorescent preS1 probe attachment to cells, fluorescence imaging)
Settings: Huh7 cells transiently expressing wild-type or mutant NTCP; parent: est. 1.0; read off a plot

Substance: wild-type NTCP transiently expressed in Huh7 cells (from UniProt Q14973) R84A; N87A
- ratio to parent (fold vs control): 0.46

Substance: wild-type NTCP transiently expressed in Huh7 cells (from UniProt Q14973) R143A; D147A
- ratio to parent (fold vs control): 1.1
